In PMC5358978, “Nuclear export receptor CRM1 recognizes diverse conformations in nuclear export signals” (eLife, 2017) one finds binding result and Kd data, which are given here for 21 molecules.

Holding throughout (conditions): both partners purified
Assay [1] concerns the target engineered ScCRM1 (residues 1-1058, △377-413, 537DLTVK541 to GLCEQ, V441D) (S. cerevisiae, UniProt P30822 1-1058, △377–413 | 537DLTVK541 to GLCEQ | V441D). Kind of assay: crystal structure; NES peptide bound to the engineered ScCRM1-RanGppNHp-Yrb1p complex; crystallised as in Fung et al., 2015.
Assay [2] deals with T1, human CRM1 (HsCRM1), wild type (human, UniProt O14980 1-1071).
T1 construct: human CRM1 / Exportin-1 (XPO1); Always used together with RanGTP (ScRanGTP in the pull-downs); also called Exportin-1; XPO1
T1 sequence (O14980 whole entry): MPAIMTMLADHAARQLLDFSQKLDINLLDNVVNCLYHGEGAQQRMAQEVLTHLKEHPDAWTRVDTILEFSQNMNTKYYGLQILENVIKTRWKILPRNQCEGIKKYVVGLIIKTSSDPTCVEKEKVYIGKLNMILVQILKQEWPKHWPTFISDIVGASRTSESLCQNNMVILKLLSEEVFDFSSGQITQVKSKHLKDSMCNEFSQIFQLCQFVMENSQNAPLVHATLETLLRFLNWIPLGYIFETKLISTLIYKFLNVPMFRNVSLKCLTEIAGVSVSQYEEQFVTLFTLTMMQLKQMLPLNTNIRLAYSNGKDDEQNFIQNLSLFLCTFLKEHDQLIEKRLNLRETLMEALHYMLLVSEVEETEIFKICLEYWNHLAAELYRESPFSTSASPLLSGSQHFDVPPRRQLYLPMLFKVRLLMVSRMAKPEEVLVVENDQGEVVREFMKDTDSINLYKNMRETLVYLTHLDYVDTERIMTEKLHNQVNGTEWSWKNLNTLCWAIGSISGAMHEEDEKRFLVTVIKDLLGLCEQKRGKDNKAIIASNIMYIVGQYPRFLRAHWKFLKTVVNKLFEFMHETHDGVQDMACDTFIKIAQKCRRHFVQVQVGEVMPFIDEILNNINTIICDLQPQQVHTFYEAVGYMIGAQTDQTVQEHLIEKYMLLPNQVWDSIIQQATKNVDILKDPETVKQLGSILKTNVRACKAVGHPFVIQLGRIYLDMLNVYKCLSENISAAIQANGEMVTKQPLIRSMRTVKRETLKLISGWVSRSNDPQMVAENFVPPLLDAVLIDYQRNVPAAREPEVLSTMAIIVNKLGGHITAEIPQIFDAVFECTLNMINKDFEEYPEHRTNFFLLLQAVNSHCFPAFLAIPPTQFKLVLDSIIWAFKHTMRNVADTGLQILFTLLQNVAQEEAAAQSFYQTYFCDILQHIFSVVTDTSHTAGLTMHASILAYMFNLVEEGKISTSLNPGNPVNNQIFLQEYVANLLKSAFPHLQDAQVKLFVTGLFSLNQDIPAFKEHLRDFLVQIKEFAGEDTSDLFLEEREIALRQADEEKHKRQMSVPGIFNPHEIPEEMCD
Nature of the assay: differential bleaching; competition titration of MBP-NES to FITC-PKI NES and CRM1 with excess RanGTP; triplicate; fitted with a set of direct titrations.

In assay [3] the target is T1, human CRM1 (HsCRM1), wild type. Nature of the assay: pull-down; ~10 µg immobilized GST-NES, 2.5 µM HsCRM1 and 7.5 µM ScRanGTP in 200 µL.
The target is the same in assay [4]. Kind of assay: pull-down; ~5 µg immobilized GST-NESs, 500 nM HsCRM1 (wild type or mutant) and 1.5 µM ScRanGTP in 1 mL.
The target of assay [5] is T2, human CRM1 mutant HsCRM1(K568A) (human, UniProt O14980 1-1071, K568A).
T2 construct: human CRM1 / Exportin-1 (XPO1) with K568A; Used together with RanGTP
T2 sequence (O14980 whole entry K568A): as the sequence (O14980 whole entry) above, with K568A counted along it
Described as above.

The target of assay [6] is T3, human CRM1 mutant HsCRM1(K568M) (human, UniProt O14980 1-1071, K568M).
T3 construct: human CRM1 / Exportin-1 (XPO1) with K568M; Used together with RanGTP
T3 sequence (O14980 whole entry K568M): as the sequence (O14980 whole entry) above, with K568M counted along it
Described as above.

For assay [7], the target named is T2, human CRM1 mutant HsCRM1(K568A). Kind of assay: pull-down; ~5 µg immobilized GST-NESs, 7.5 µM ScRanGTP and 2.5 µM HsCRM1 (wild type or mutant) in 200 µL.
In assay [8] the target is T3, human CRM1 mutant HsCRM1(K568M). The description is as above.
Assay [9] has as its target engineered ScCRM1(K579A) mutant (S. cerevisiae, UniProt P30822 1-1058, △377–413 | 537DLTVK541 to GLCEQ | V441D | K579A). Kind of assay: crystal structure; NES peptide bound to the engineered ScCRM1-RanGppNHp-Yrb1p complex; crystallised as in Fung et al., 2015.

B1: mDia2 NES peptide (crystallised) (peptide)
peptide: GGSYSVPEVEALLARLRAL
notes: residues printed before the NES in the crystallised peptide; not of mDia2; mouse diaphanous homolog 3 (mDia2), residues 1179-1193; source: expressed and purified as described in Fung et al., 2015
With B1, in assay [1], the binding result is listed as “binds”.

B2: MBP-mDia2 NES (wild type) (peptide)
chain: SVPEVEALLARLRAL
notes: mouse diaphanous homolog 3 (mDia2), residues 1179-1193; also called wild type mDia2^NES; not shown: MBP, N-terminal, kept
For the molecule B2, binding in [2] was put at a Kd of 1.7 µM. In other words, the single-digit micromolar range.

B3: Paxillin NES peptide (crystallised) (peptide)
peptide: RELDELMASLSDFKFMAQ
notes: Paxillin, residues 264-281; Extra N-terminal residues such as those printed for mDia2 (GGSY) and FMRP-1b (GGS) may be present; also called Pax^NES; source: expressed and purified as described in Fung et al., 2015
Turning to B3, the binding result in assay [1] is reported as “binds”.

B4: MBP-CDC7 NES (peptide)
chain: QDLRKLCERLRGMDSSTP
notes: cell division cycle 7-related protein kinase (CDC7), residues 456-473; also called MBP-NES; not shown: MBP, N-terminal, kept
Regarding B4, in [2], the binding result is given as “binds”.

B5: MBP-X11L2 NES (peptide)
chain: SSLQELVQQFEALPGDLV
notes: also called MBP-NES; not shown: MBP, N-terminal, kept
Consider B5, for which, in assay [2], the binding result is “binds”.

B6: X11L2 NES peptide (crystallised) (peptide)
peptide: SSLQELVQQFEALPGDLV
notes: Extra N-terminal residues such as those printed for mDia2 (GGSY) and FMRP-1b (GGS) may be present; source: expressed and purified as described in Fung et al., 2015
B6: the binding result in assay [1] is “binds”.

B7: MBP-FMRP NES (peptide)
chain: YLKEVDQLRLERLQI
notes: fragile X mental retardation protein (FMRP), residues 423-437; also called MBP-NES; not shown: MBP, N-terminal, kept
On to B7, for which, in assay [2], the binding result is given as “binds”.

B8: PKI NES(Φ4A) mutant (MBP fusion) (peptide)
chain: NSNELALKLAGLDANKT
On to B8, for which, in assay [2], the affinity, expressed as Kd, was 150 µM.

B9: CDC7 NES peptide (crystallised) (peptide)
peptide: QDLRKLCERLRGMDSSTP
notes: cell division cycle 7-related protein kinase (CDC7), residues 456-473; Extra N-terminal residues such as those printed for mDia2 (GGSY) and FMRP-1b (GGS) may be present; source: expressed and purified as described in Fung et al., 2015
As to B9, in assay [1], the binding result is reported as “binds”.

B10: SMAD4 NES peptide (crystallised) (peptide)
peptide: YERVVSPGIDLSGLTLQ
notes: Mothers against decapentaplegic homolog 4 (SMAD4), residues 133-149; Extra N-terminal residues such as those printed for mDia2 (GGSY) and FMRP-1b (GGS) may be present; source: expressed and purified as described in Fung et al., 2015
Take B10: the binding result in assay [1] was “binds”.

B11: GST-CDC7 NES (peptide)
chain: QDLRKLCERLRGMDSSTP
notes: cell division cycle 7-related protein kinase (CDC7), residues 456-473; source: as described in Fung et al., 2015; not shown: GST, N-terminal, kept
As to B11, in assay [3], the binding result is given as “binds”.

B12: GST-X11L2 NES (peptide)
chain: SSLQELVQQFEALPGDLV
notes: source: as described in Fung et al., 2015; not shown: GST, N-terminal, kept
Turning to B12, the binding result in [4], in [5] and in assay [6] was “binds” in each case.

B13: GST-Hxk2 peptide (false positive NES) (peptide)
chain: DVPKELMQQIENFEKIFTV
notes: Hexokinase-2 (Hxk2), residues 18-36; also called GST-NESs; source: as described in Fung et al., 2015; not shown: GST, N-terminal, kept
Turning to B13, in assay [7], the binding result is “binds”.

B14: GST-DEAF1 peptide (false positive NES) (peptide)
chain: SWLYLEEMVNSLLNTAQQ
notes: Deformed Epidermal Autoregulatory Factor 1 homolog (DEAF1), residues 452-469; also called GST-NESs; source: as described in Fung et al., 2015; not shown: GST, N-terminal, kept
Take B14: the binding result in assay [7] and in assay [8] was “binds” in each case.

B15: HDAC5 NES peptide (crystallised) (peptide)
peptide: EAETVSAMALLSVG
notes: Histone deacetylase 5 (HDAC5), residues 1082-1095; Extra N-terminal residues such as those printed for mDia2 (GGSY) and FMRP-1b (GGS) may be present; also called HDAC^NES; source: expressed and purified as described in Fung et al., 2015
As to B15, the binding result in [1] is on record as “binds”.

B16: MBP-HDAC5 NES (peptide)
chain: EAETVSAMALLSVG
notes: Histone deacetylase 5 (HDAC5), residues 1082-1095; also called HDAC^NES; MBP-NES; not shown: MBP, N-terminal, kept
For the molecule B16, the binding result in assay [2] was “binds”.

B17: MBP-Paxillin NES (peptide)
chain: RELDELMASLSDFKFMAQ
notes: Paxillin, residues 264-281; also called Pax^NES; MBP-NES; not shown: MBP, N-terminal, kept
For B17, in assay [2], the binding result was “binds”.

B18: FMRP NES peptide (crystallised) (peptide)
peptide: YLKEVDQLRLERLQI
notes: fragile X mental retardation protein (FMRP), residues 423-437; Extra N-terminal residues such as those printed for mDia2 (GGSY) and FMRP-1b (GGS) may be present; source: expressed and purified as described in Fung et al., 2015
In the case of B18, in assay [1], the binding result is on record as “binds”.

B19: MBP-SMAD4 NES (peptide)
chain: YERVVSPGIDLSGLTLQ
notes: Mothers against decapentaplegic homolog 4 (SMAD4), residues 133-149; also called MBP-NES; not shown: MBP, N-terminal, kept
Regarding B19, the binding result in [2] is “binds”.

B20: Hxk2 peptide (crystallised, false positive NES) (peptide)
peptide: DVPKELMQQIENFEKIFTV
notes: Hexokinase-2 (Hxk2), residues 18-36; Extra N-terminal residues such as those printed for mDia2 (GGSY) and FMRP-1b (GGS) may be present; source: expressed and purified as described in Fung et al., 2015
Take B20: in assay [9], the binding result is “binds”.

B21: DEAF1 peptide (crystallised, false positive NES) (peptide)
peptide: SWLYLEEMVNSLLNTAQQ
notes: Deformed Epidermal Autoregulatory Factor 1 homolog (DEAF1), residues 452-469; Extra N-terminal residues such as those printed for mDia2 (GGSY) and FMRP-1b (GGS) may be present; also called DEAF^pep; source: expressed and purified as described in Fung et al., 2015
B21: the binding result in [9] is “binds”.

A word on the Kd: it is the constant that tells how readily two partners part at equilibrium. A higher Kd goes with a looser complex.
